# Data published in patent US20260217793A1 (Chugai, published 2026).
# Numbering of substitutions follows the chain as printed.
# T1: FcγRIIb extracellular domain with C-terminal His tag (human, UniProt P31994 43-217)
# T1 sequence (looked up): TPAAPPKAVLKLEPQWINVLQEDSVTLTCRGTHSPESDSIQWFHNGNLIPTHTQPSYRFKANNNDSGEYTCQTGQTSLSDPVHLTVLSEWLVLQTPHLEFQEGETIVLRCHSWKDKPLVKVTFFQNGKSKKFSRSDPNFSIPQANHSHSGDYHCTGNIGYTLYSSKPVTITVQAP
# T2: FcγRIIa type R extracellular domain with C-terminal His tag (human, UniProt P12318 34-217)
# T2 sequence (looked up): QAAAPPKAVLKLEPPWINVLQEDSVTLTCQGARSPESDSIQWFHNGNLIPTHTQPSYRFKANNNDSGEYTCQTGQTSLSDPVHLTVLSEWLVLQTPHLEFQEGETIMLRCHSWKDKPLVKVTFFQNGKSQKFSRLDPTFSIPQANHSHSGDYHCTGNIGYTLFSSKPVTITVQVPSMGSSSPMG
# T3: human FcγRIIb extracellular domain with C-terminal His tag (human, UniProt P31994 43-217)
# T3 sequence (looked up): T1 sequence (looked up)
# T4: human FcγRIIa type R (Arg131) extracellular domain with C-terminal His tag (human, UniProt P12318 34-217)
# T4 sequence (looked up): T2 sequence (looked up)
# B1: IL6R-BP262/IL6R-L (antibody, human IgG1, kappa)
# heavy: QVQLQESGPGLVKPSETLSLTCAVSGHSISHDHAWSWVRQPPGEGLEWIGFISYSGITNYNPSLQGRVTISRDNSKNTLYLQMNSLRAEDTAVYYCARSLARTTAMDYWGEGTLVTVSSASTKGPSVFPLAPSSKSTSGGTAALGCLVKDYFPEPVTVSWNSGALTSGVHTFPAVLQSSGLYSLSSVVTVPSSSLGTQTYICNVNHKPSNTKVDKKVEPKSCDKTHTCPPCPAPELLGDDSVFLFPPKPKDTLMISRTPEVTCVVVDVSEEDGEVKFNWYVDGVEVHNAKTKPREEQYNSTYRVVSVLTVLHQDWLNGKEYKCKVSNKALPAPIEKTISKAKGQPREPQVYTLPPSRDELTKNQVSLTCLVKGFYPSDIAVEWESNGQPENNYKTTPPVLDSDGSFFLYSKLTVDKSRWQQGNVFSCSVMHEALHNHYTQESLSLSP
# light: not shown
# B2: IL6R-BP269/IL6R-L (antibody, human IgG1, kappa)
# heavy: B1 heavy with Y298D
# light: not shown
# B3: IL6R-BP483/IL6R-L (antibody, human IgG1, kappa)
# heavy: B1 heavy with E235D, V268L, S269A
# light: not shown
# B4: IL6R-BP487/IL6R-L (antibody, human IgG1, kappa)
# heavy: B1 heavy with E235D, V266I, S269A, A332R, P398M
# light: not shown
# B5: IL6R-BP488/IL6R-L (antibody, human IgG1, kappa)
# heavy: B1 heavy with E235D, V266I, S269A, Y298D, A332R
# light: not shown
# B6: IL6R-BP489/IL6R-L (antibody, human IgG1, kappa)
# heavy: B1 heavy with E235D, V266I, S269A, Y298D, A332R, P398M
# light: not shown
# B7: IL6R-BP492/IL6R-L (antibody, human IgG1, kappa)
# heavy: B1 heavy with D239G, V266I, S269A
# light: not shown
# B8: IL6R-BP494/IL6R-L (antibody, human IgG1, kappa)
# heavy: B1 heavy with S269A, Y298D, A332R
# light: not shown
# B9: IL6R-BP497/IL6R-L (antibody, human IgG1, kappa)
# heavy: B1 heavy with E235D, V266I, S269A, A329G, A332R
# light: not shown
# B10: IL6R-BP491/IL6R-L (antibody, human IgG1, kappa)
# heavy: B1 heavy with V266I, S269A, Y298D, A332R
# light: not shown
# B11: IL6R-BP496/IL6R-L (antibody, human IgG1, kappa)
# heavy: B1 heavy with E235D, V266I, S269A, Y298D
# light: not shown
# B12: IL6R-BP498/IL6R-L (antibody, human IgG1, kappa)
# heavy: B1 heavy with E235D, V266I, S269A, A332R, P398L
# light: not shown
# B13: IL6R-BP502/IL6R-L (antibody, human IgG1, kappa)
# heavy: B1 heavy with E235D, V266I, S269A, Y298D, A329G, A332R
# light: not shown
# B14: IL6R-BP503/IL6R-L (antibody, human IgG1, kappa)
# heavy: B1 heavy with E235D, V266I, S269A, Y298D, A329G, A332R, P398M
# light: not shown
# B15: IL6R-BP504/IL6R-L (antibody, human IgG1, kappa)
# heavy: B1 heavy with E235D, V266I, S269A, E274P
# light: not shown
# B16: IL6R-BP505/IL6R-L (antibody, human IgG1, kappa)
# heavy: B1 heavy with E235D, V266I, S269A, E274D
# light: not shown
# B17: IL6R-BP508/IL6R-L (antibody, human IgG1, kappa)
# heavy: B1 heavy with E235D, V266I, S269A, E274P, Y298D
# light: not shown
# B18: IL6R-BP509/IL6R-L (antibody, human IgG1, kappa)
# heavy: B1 heavy with E235D, V266I, S269A, E274D, Y298D
# light: not shown
# B19: IL6R-BP511/IL6R-L (antibody, human IgG1, kappa)
# heavy: B1 heavy with V266I, S269A, E274P, Y298D, A332R
# light: not shown
# B20: IL6R-BP536/IL6R-L (antibody, human IgG1, kappa)
# heavy: B1 heavy with E235D, V266I, Y298D, A329G, A332R, P398M
# light: not shown
# B21: IL6R-BP538/IL6R-L (antibody, human IgG1, kappa)
# heavy: B1 heavy with V266I, A332R
# light: not shown
# B22: IL6R-BP540/IL6R-L (antibody, human IgG1, kappa)
# heavy: B1 heavy with V266I, E274P, Y298D, A332R
# light: not shown
# B23: IL6R-BP551/IL6R-L (antibody, human IgG1, kappa)
# heavy: B1 heavy with V266I, E274D, Y298D, A332R
# light: not shown
# B24: IL6R-BP563/IL6R-L (antibody, human IgG1, kappa)
# heavy: B1 heavy with E235D, E274D, Y298D, A332R
# light: not shown
# B25: IL6R-BP565/IL6R-L (antibody, human IgG1, kappa)
# heavy: B1 heavy with E235D, S269A, Y298D, A332R
# light: not shown
# B26: IL6R-BP552/IL6R-L (antibody, human IgG1, kappa)
# heavy: B1 heavy with E235D, V266I, S269A, E274D, Y298D, A332R
# light: not shown
# B27: IL6R-BP531/IL6R-L (antibody, human IgG1, kappa)
# heavy: B1 heavy with E235D, V266I, S269G, Y298D, A332R, P398M
# light: not shown
# B28: IL6R-BP532/IL6R-L (antibody, human IgG1, kappa)
# heavy: B1 heavy with E235D, V266I, Y298D, A332R, P398M
# light: not shown
# B29: IL6R-BP534/IL6R-L (antibody, human IgG1, kappa)
# heavy: B1 heavy with E235D, V266I, Y298D, A332R, P398L
# light: not shown
# B30: IL6R-BP535/IL6R-L (antibody, human IgG1, kappa)
# heavy: B1 heavy with E235D, V266I, S269G, Y298D, A329G, A332R, P398M
# light: not shown
# B31: IL6R-BP537/IL6R-L (antibody, human IgG1, kappa)
# heavy: B1 heavy with V266I, S269G, A332R
# light: not shown
# B32: IL6R-BP553/IL6R-L (antibody, human IgG1, kappa)
# heavy: B1 heavy with E235D, V266I, S269A, E274D, A332R
# light: not shown
# B33: IL6R-BP554/IL6R-L (antibody, human IgG1, kappa)
# heavy: B1 heavy with V266I, S269A, E274D, A332R
# light: not shown
# B34: IL6R-BP555/IL6R-L (antibody, human IgG1, kappa)
# heavy: B1 heavy with V266I, S269A, E274D, Y298D, A332R
# light: not shown
# B35: IL6R-BP556/IL6R-L (antibody, human IgG1, kappa)
# heavy: B1 heavy with V266I, S269G, Y298D, A332R
# light: not shown
# B36: IL6R-BP561/IL6R-L (antibody, human IgG1, kappa)
# heavy: B1 heavy with E235D, E270D, E274D, Y298D, A332R
# light: not shown
# Target: T1, FcγRIIb extracellular domain with …
# Assay: ratio of SPR KDs vs IL6R-B3/IL6R-L
row,KD (IIb) of parent polypeptide/KD (IIb) of altered polypeptide,Binder
1,25.8,B1
2,27.4,B2
3,39.7,B3
4,2700,B4
5,1680,B5
6,3100,B6
7,131,B7
8,471,B8
9,764,B9

# Target: T2, FcγRIIa type R extracellular domain …
# Assay: ratio of SPR KDs vs IL6R-B3/IL6R-L
row,KD (IIaR) of parent polypeptide/KD (IIaR) of altered polypeptide,Binder
1,0.5,B1
2,0.5,B2
3,0.8,B3
4,28.3,B4
5,14.8,B5
6,25.7,B6
7,9.3,B10
8,1.2,B7
9,4.3,B8
10,2.3,B11
11,21.7,B12

# Target: T1, FcγRIIb extracellular domain with …
# Assay: ratio of SPR KDs, FcγRIIaH over FcγRIIb, same variant
row,KD (IIaH)/KD (IIb),Binder
1,375,B1
2,637,B2
3,730,B4
4,870,B6
5,724,B10
6,821,B8
7,201,B11
8,236,B9
9,564,B12

# Target: T3, human FcγRIIb extracellular domain with …
# Assay: SPR
row,KD (IIb) of parent polypeptide/KD (IIb) of altered polypeptide,Binder
1,840,B13
2,1810,B14
3,128,B15
4,145,B16
5,149,B17
6,174,B18
7,891,B19
8,1040,B20
9,587,B21
10,541,B22
11,482,B23
12,196,B24
13,565,B25

# Target: T4, human FcγRIIa type R (Arg131) …
# Assay: SPR
row,KD (IIaR) of parent polypeptide/KD (IIaR) of altered polypeptide,Binder
1,10.1,B13
2,19.4,B14
3,2.4,B15
4,2.6,B16
5,2,B17
6,2.1,B18
7,6.3,B19
8,13.9,B20
9,5.4,B21
10,5.2,B22
11,4.5,B23
12,2.4,B24
13,4.8,B25

# Target: T1, FcγRIIb extracellular domain with …
# Assay: ratio of SPR KDs, FcγRIIaR over FcγRIIb, same variant
row,KD (IIaR)/KD (IIb),Binder
1,17,B1
2,19.6,B2
3,16.8,B3
4,40.1,B5
5,38.8,B10
6,25.5,B11
7,21,B9
8,30.8,B12

# Target: human FcγRIIIa type V (Val158) extracellular domain with C-terminal His tag (human, UniProt P08637 17-208)
# Sequence (P08637 17-208 F176V): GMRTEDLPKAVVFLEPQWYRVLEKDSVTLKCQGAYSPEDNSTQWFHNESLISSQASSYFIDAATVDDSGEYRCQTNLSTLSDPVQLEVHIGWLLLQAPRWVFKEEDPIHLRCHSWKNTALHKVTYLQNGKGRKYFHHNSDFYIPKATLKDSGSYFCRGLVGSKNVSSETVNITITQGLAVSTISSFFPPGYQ
# Assay: SPR
row,Kd,Binder
1,30 µM,B26
2,27 µM,B27
3,26 µM,B28
4,25 µM,B29
5,33 µM,B30
6,23 µM,B20
7,36 µM,B31
8,33 µM,B21
9,39 µM,B22
10,48 µM,B23
11,20 µM,B32
12,24 µM,B33
13,30 µM,B34
14,60 µM,B35
15,37 µM,B36
16,38 µM,B24
17,21 µM,B25
